# Reference: IntAct's records for PubMed 21807993
# B1: E4 ubiquitin-protein ligase UFD2 (Saccharomyces cerevisiae), P54860 (parent)
# chain: MTAIEDILQITTDPSDTRGYSLLKSEEVPQGSTLGVDFIDTLLLYQLTENEKLDKPFEYLNDCFRRNQQQKRITKNKPNAESLHSTFQEIDRLVIGYGVVALQIENFCMNGAFINYITGIVSNVNSYTDFLSQIIQRAILEGTALDLLNAVFPTLLEYCNKHVSHFDLNESVIYNNVLTIFELFVTFKPIAEIFTKIDGFFADYSCKPQDFERKTILGPILSLSPIEAAVAIRNYGDNLLRSKQQTAMIHESLQAEHKVVIDRLFFIVDKLVRGSLNSRTDMISYFAHIANKNHLRRADHPPFKELSSNGFMSNITLLLVRFSQPFLDISYKKIDKIDANYFNNPSLFIDLSGETRLNSDFKEADAFYDKNRKTADSKPNFISDCFFLTLTYLHYGLGGTLSFEEKMGSEIKALKEEIEKVKKIAANHDVFARFITAQLSKMEKALKTTESLRFALQGFFAHRSLQLEVFDFICGASTFLIRVVDPEHEFPFKQIKLPLIPDQIGVENVDNADFLRAHAPVPFKYYPEFVVEGPVNYSLYISKYQTSPIFRNPRLGSFVEFTTMVLRCPELVSNPHLKGKLVQLLSVGAMPLTDNSPGFMMDIFEHDELVNKNLLYALLDFYVIVEKTGSSSQFYDKFNSRYSISIILEELYYKIPSYKNQLIWQSQNNADFFVRFVARMLNDLTFLLDEGLSNLAEVHNIQNELDNRARGAPPTREEEDKELQTRLASASRQAKSSCGLADKSMKLFEIYSKDIPAAFVTPEIVYRLASMLNYNLESLVGPKCGELKVKDPQSYSFNPKDLLKALTTVYINLSEQSEFISAVAKDERSFNRNLFVRAVDILGRKTGLASPEFIEKLLNFANKAEEQRKADEEEDLEYGDVPDEFLDPLMYTIMKDPVILPASKMNIDRSTIKAHLLSDSTDPFNRMPLKLEDVTPNEELRQKILCFKKQKKEEAKHKASE
# Variants of: B1
# Settings: with cdc48_yeast CDC48, P25694
# cdc48_yeast CDC48, P25694, sequence (P25694 whole entry): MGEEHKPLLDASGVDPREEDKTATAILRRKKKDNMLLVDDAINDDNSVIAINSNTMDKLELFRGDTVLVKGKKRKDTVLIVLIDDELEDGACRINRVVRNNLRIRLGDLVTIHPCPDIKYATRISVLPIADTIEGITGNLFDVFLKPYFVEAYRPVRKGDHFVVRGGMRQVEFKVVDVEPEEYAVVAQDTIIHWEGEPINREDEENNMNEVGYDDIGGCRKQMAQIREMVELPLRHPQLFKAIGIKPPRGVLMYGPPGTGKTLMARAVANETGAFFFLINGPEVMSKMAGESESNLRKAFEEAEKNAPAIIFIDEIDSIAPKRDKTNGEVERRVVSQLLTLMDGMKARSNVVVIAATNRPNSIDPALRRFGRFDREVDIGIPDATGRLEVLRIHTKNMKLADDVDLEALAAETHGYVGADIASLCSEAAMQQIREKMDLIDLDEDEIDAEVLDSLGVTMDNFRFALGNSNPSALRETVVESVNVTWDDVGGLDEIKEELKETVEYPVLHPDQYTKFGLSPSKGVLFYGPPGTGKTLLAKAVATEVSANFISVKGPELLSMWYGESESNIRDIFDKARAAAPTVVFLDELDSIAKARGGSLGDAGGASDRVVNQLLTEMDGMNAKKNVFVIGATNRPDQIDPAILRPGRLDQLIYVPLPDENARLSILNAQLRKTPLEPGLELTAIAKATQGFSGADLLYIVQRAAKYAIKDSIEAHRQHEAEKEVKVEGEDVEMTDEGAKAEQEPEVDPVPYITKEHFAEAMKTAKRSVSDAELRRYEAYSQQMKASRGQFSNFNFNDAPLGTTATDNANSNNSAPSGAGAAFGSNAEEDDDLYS
row,effect of a mutation on the interaction,Variant
1,disrupting interaction strength,C385Y
2,disrupting interaction strength,G274D
